B1: GpH7-A5/GpH7-B3 variant K326_06M/GpL16-k0 (antibody, human IgG1, kappa)
heavy 1: not shown
heavy 2: not shown
light: DIVMTQSPLSLPVTPGEPASISCQASESLVHSNRNTYLHWYLQKPGQSPQLLIYKVSNRFSGVPDRFSGSGSGTDFTLKISRVEAEDVGVYYCSQNTHVPPTFGQGTKVEIERTVAAPSVFIFPPSDEQLKSGTASVVCLLNNFYPREAKVQWKVDNALQSGNSQESVTEQDSKDSTYSLSSTLTLSKADYEKHKVYACEVTHQGLSSPVTKSFNRGEC
notes: Heterodimerized IgG1; alteration in one H chain only; also called He Ab
B2: GpH7-A5/GpH7-B3 variant K326_07I/GpL16-k0 (antibody, human IgG1, kappa)
heavy 1: not shown
heavy 2: not shown
light: B1 light
notes: as for B1
B3: GpH7-A5/GpH7-B3 variant K326_08L/GpL16-k0 (antibody, human IgG1, kappa)
heavy 1: not shown
heavy 2: not shown
light: B1 light
notes: as for B1
B4: GpH7-A5/GpH7-B3 variant K326_09D/GpL16-k0 (antibody, human IgG1, kappa)
heavy 1: not shown
heavy 2: not shown
light: B1 light
notes: as for B1
B5: GpH7-A5/GpH7-B3 variant K326_10E/GpL16-k0 (antibody, human IgG1, kappa)
heavy 1: not shown
heavy 2: not shown
light: B1 light
notes: as for B1
B6: GpH7-A5/GpH7-B3 variant K326_15Y/GpL16-k0 (antibody, human IgG1, kappa)
heavy 1: not shown
heavy 2: not shown
light: B1 light
notes: as for B1
B7: GpH7-A5/GpH7-B3 variant K326_19Q/GpL16-k0 (antibody, human IgG1, kappa)
heavy 1: not shown
heavy 2: not shown
light: B1 light
notes: as for B1
B8: GpH7-A5/GpH7-B3 variant K326_20W/GpL16-k0 (antibody, human IgG1, kappa)
heavy 1: not shown
heavy 2: not shown
light: B1 light
notes: as for B1
B9: GpH7-A5/GpH7-B3 variant L328_01G/GpL16-k0 (antibody, human IgG1, kappa)
heavy 1: not shown
heavy 2: not shown
light: B1 light
notes: as for B1
B10: GpH7-A5/GpH7-B3 variant L328_02A/GpL16-k0 (antibody, human IgG1, kappa)
heavy 1: not shown
heavy 2: not shown
light: B1 light
notes: as for B1
B11: GpH7-A5/GpH7-B3 variant L328_03V/GpL16-k0 (antibody, human IgG1, kappa)
heavy 1: not shown
heavy 2: not shown
light: B1 light
notes: as for B1
B12: GpH7-A5/GpH7-B3 variant S298_05P/GpL16-k0 (antibody, human IgG1, kappa)
heavy 1: not shown
heavy 2: not shown
light: B1 light
notes: as for B1
B13: GpH7-A5/GpH7-B3 variant Y300_05P/GpL16-k0 (antibody, human IgG1, kappa)
heavy 1: not shown
heavy 2: not shown
light: B1 light
notes: as for B1
B14: heterodimerized antibody GpH7-A5/GpH7-B3 variant L328_19Q/GpL16-k0 (antibody, human IgG1, kappa)
heavy 1: not shown
heavy 2: not shown
light: B1 light
notes: He Ab: anti-glypican-3 IgG1, alteration in one H chain only; also called He Ab
B15: heterodimerized antibody GpH7-A5/GpH7-B3 variant S239_03V/GpL16-k0 (antibody, human IgG1, kappa)
heavy 1: not shown
heavy 2: not shown
light: B1 light
notes: as for B14
B16: heterodimerized antibody GpH7-A5/GpH7-B3 variant Y300_19Q/GpL16-k0 (antibody, human IgG1, kappa)
heavy 1: not shown
heavy 2: not shown
light: B1 light
notes: as for B14

target: T1, FcγRIIb extracellular domain with C-terminal His tag (human, UniProt P31994 43-217); test: SPR (Biacore), relative binding
T1 construct: extracellular domain; also called FcgRIIb; 2b; not shown: His tag attached to the C terminus
T1 sequence (looked up): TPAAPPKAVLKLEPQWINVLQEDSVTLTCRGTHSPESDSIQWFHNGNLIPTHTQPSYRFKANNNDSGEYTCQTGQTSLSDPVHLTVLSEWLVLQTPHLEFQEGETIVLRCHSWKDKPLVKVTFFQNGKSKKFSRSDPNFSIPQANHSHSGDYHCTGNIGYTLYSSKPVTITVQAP
Protocol: (§1) Analysis of interaction between objective antibody and the FcγR was carried out using Biacore T100 (GE Healthcare). HBS-EP+ (GE Healthcare) was used as the running buffer, and the measurement temperature was set to 25° C. Chips produced by immobilizing the antigen peptide by the amine coupling method to a Series S Sencor Chip CM5 (GE Healthcare), or alternatively, chips produced by allowing preliminarily biotinylated antigen peptides to interact with and immobilize onto a Series S Sensor Chip SA (certified) (GE Healthcare) were used. Antibodies of interest were captured onto an antigen peptide-immobilized chip, and allowed to interact to each FcγR diluted with running buffer. To regenerate and repeatedly use the chip, the antibodies captured on the chip were washed off by reacting 10 mM glycine-HCl, pH 1.5.
(§2) The FcγR-binding activity of each antibody was assessed primarily using as an indicator the FcγR-binding activity and dissociation constant for FcγR.

Row | Binder | He/Con_2b (IIb binding)
1 | B1 | 165 % of GpH7-A5/GpH7-B3/GpL16-k0 (=100)
2 | B2 | 199 % of GpH7-A5/GpH7-B3/GpL16-k0 (=100)
3 | B3 | 177 % of GpH7-A5/GpH7-B3/GpL16-k0 (=100)
4 | B4 | 193 % of GpH7-A5/GpH7-B3/GpL16-k0 (=100)
5 | B5 | 200 % of GpH7-A5/GpH7-B3/GpL16-k0 (=100)
6 | B6 | 159 % of GpH7-A5/GpH7-B3/GpL16-k0 (=100)
7 | B7 | 139 % of GpH7-A5/GpH7-B3/GpL16-k0 (=100)
8 | B8 | 148 % of GpH7-A5/GpH7-B3/GpL16-k0 (=100)
9 | B9 | 80.2 % of GpH7-A5/GpH7-B3/GpL16-k0 (=100)
10 | B10 | 144 % of GpH7-A5/GpH7-B3/GpL16-k0 (=100)
11 | B11 | 126 % of GpH7-A5/GpH7-B3/GpL16-k0 (=100)
12 | B12 | 11.9 % of GpH7-A5/GpH7-B3/GpL16-k0 (=100)

target: T2, FcγRIIIa extracellular domain with C-terminal His tag (human, UniProt P08637 17-208); test: SPR (Biacore), relative binding
T2 construct: extracellular domain; also called FcgRIIIa; 3a; not shown: His tag attached to the C terminus
T2 sequence (P08637 17-208): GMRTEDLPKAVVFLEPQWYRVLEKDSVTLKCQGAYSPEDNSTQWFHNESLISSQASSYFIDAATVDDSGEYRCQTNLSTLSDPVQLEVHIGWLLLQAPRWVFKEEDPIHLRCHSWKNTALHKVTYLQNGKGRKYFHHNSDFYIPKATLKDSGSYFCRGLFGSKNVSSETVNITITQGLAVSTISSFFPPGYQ
Protocol: as §1, §2

Row | Binder | He/Con_3a (IIIa binding)
13 | B1 | 115 % of GpH7-A5/GpH7-B3/GpL16-k0 (=100)
14 | B2 | 139 % of GpH7-A5/GpH7-B3/GpL16-k0 (=100)
15 | B3 | 114 % of GpH7-A5/GpH7-B3/GpL16-k0 (=100)
16 | B4 | 134 % of GpH7-A5/GpH7-B3/GpL16-k0 (=100)
17 | B5 | 124 % of GpH7-A5/GpH7-B3/GpL16-k0 (=100)
18 | B6 | 112 % of GpH7-A5/GpH7-B3/GpL16-k0 (=100)
19 | B7 | 106 % of GpH7-A5/GpH7-B3/GpL16-k0 (=100)
20 | B8 | 84.8 % of GpH7-A5/GpH7-B3/GpL16-k0 (=100)
21 | B9 | 44.9 % of GpH7-A5/GpH7-B3/GpL16-k0 (=100)
22 | B10 | 79.1 % of GpH7-A5/GpH7-B3/GpL16-k0 (=100)
23 | B11 | 78.7 % of GpH7-A5/GpH7-B3/GpL16-k0 (=100)
24 | B13 | 2.8 % of GpH7-A5/GpH7-B3/GpL16-k0 (=100)

target: T3, FcγRIIb, extracellular domain with C-terminal His tag (human, UniProt P31994 43-217); test: Biacore SPR; binding relative to GpH7-A5/GpH7-B3/GpL16-k0 (=100)
T3 construct: extracellular domain; soluble receptor used as Biacore analyte; also called 2b; FcgRIIb
T3 sequence (looked up): T1 sequence (looked up)
Protocol: (§3) The heterodimerized antibodies He Abs in which one of the H chains was introduced with an alteration were assayed for their binding activities to each activating FcγR and inhibitory FcγR according to the method described in Example 4. […] The activating FcγRs in FIGS. 26, 27, 28, and 29 are FcγRIa, FcγRIIa (R), FcγRIIa (H), and FcγRIIIa, respectively.
as §1

Row | Binder | He/Con_2b (IIb binding)
25 | B14 | 105 % of control
26 | B15 | 108 % of control
27 | B16 | 108 % of control

target: T4, FcγRIIa R (FcγRIIa, allotype R, Arg at position 131), extracellular domain with C-terminal His tag (human, UniProt P12318 34-217); test: as above
T4 construct: extracellular domain; soluble receptor used as Biacore analyte; also called 2aR; FcgRIIa R
T4 sequence (looked up): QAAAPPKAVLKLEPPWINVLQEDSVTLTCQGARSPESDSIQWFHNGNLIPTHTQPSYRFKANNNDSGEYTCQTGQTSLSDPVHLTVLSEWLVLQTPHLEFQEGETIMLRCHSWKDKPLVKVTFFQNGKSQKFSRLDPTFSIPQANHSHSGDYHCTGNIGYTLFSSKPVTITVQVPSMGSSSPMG
Protocol: as §3, §1

Row | Binder | He/Con_2aR (IIaR binding)
28 | B14 | 89.3 % of control
29 | B15 | 99.9 % of control
30 | B16 | 99.7 % of control

target: T2, FcγRIIIa extracellular domain with …; test: SPR (Biacore); He/Con_3a divided by He/Con_2b (reference: binding to FcγRIIb)
Protocol: as §1, §2

Row | Binder | He_3a/2b (IIIa/IIb)
31 | B1 | 0.7 ratio
32 | B2 | 0.7 ratio
33 | B3 | 0.65 ratio
34 | B4 | 0.69 ratio
35 | B5 | 0.62 ratio
36 | B6 | 0.7 ratio
37 | B7 | 0.76 ratio
38 | B8 | 0.57 ratio
39 | B9 | 0.56 ratio
40 | B10 | 0.55 ratio
41 | B11 | 0.63 ratio
42 | B13 | 0.38 ratio
